{
  "source": "IntAct's records for PubMed 33097660",
  "parents": {"B1": {"name": "ORF6 protein (SARS-CoV-2), P0DTC6 (parent)", "chain": "MFHLVDFQVTIAEILLIIMRTFKVSIWNLDYIINLIIKNLSKSLTENKYSQLDEEQPMEID"}},
  "data": [
    {"variants_of": "B1", "conditions": "with ima5_human KPNA1, P52294", "values": [
      {"variant": "M58R", "effect of a mutation on the interaction": "with no effect"}
    ]},
    {"variants_of": "B1", "conditions": "with ima1_human KPNA2, P52292", "values": [
      {"variant": "M58R", "effect of a mutation on the interaction": "with no effect"}
    ]},
    {"variants_of": "B1", "conditions": "with nup98_human NUP98, P52948", "values": [
      {"variant": "M58R", "effect of a mutation on the interaction": "disrupting interaction strength"}
    ]}
  ]
}
